Test system: FZD6–FZD6 dimer
Assay: dynamic FCCS of V5-FZD6-mCherry/FZD6-GFP
Assay type: cell-based, human
Conditions: HEK293
Protocol: HEK293 cells were grown over-night in Lab-Tek eight-well chamber-glass bottom slides (Nunc, Thermo Scientific, Langensbold, Germany) coated with matrigel. Data were acquired in 10 s intervals. Collection intervals containing abnormal fluorescence peaks (presumably resulting from aggregates or ROIs where the overall fluorescence was decaying, putatively due to membrane movements) were discarded from the overall analysis. The total included measurements time ranged from 20 to 80 s per cell. Measurements were only undertaken on cells where the fluorescence was well localized to the cell surface membrane, as judged by visual inspection in the wide-field and confocal mode. Autofluorescence, as well as fluorescence from both GFP and mCherry in the intracellular region was negligible. The number of fluorescent receptors assessed in each experiment varied from 10–1000 receptors per µm^2 in each HEK293 cell.
Dynamic FCCS measurements of WNT-dependent dissociation and re-association of FZD (Fig. 5c–e) were performed on an FCS/FCCS-equipped Zeiss 780 confocal microscope (Zeiss, Jena, Germany). The instrument details were the same as those of the Confocor 3 described above, with the exception that 561 nm excitation was used for excitation of mCherry, that GFP emission was detected from 500 to 550 nm, and that mCherry emission was detected from 600 to 690 nm. Experiments on cells were performed as described above, with each measurement point consisting of 3–6 measurements of 10 s each. […]
Assuming that M is FZD6-GFP (green) and N is FZD6-mCherry (red) and that all FZD6 form dimers, then the probability of finding a green–red FZD6 dimer is pgr=2×M×N/(M+N)(M+N-1)≈2×M×N/M+N^2=(2cgg+cgr)(2crr+cgr)/2cgg+cgr+crr^2 , where c gg, c gr, and c rr are the corresponding concentrations of the only green FZD6 dimers, the red and green FZD6 dimers and the only red FZD6 dimers. […] From the experiments, we determine the concentrations for c gg, c gr and c rr and compare the concentrations c gr with the c′gr for each cell to get an estimation of how close the model is to experimental data: cgr/c′gr=2cgr×(cgg+cgr+crr)/((2cgg+cgr)(2crr+cgr)) Analysis of the dynamic FCCS measurements of WNT-dependent dissociation and re-association of FZD6: Auto-correlation and cross-correlation curves were analyzed as described above and the amplitudes G g(0)−1, G r(0)−1, and G cc(0)−1 from each of the more than 300 measurements of 10 s duration were estimated by fitting to theoretical models. […]
With the settings described above for detection of emission, the crosstalk from the GFP channel to the mCherry channel, defined as the intensity detected in the mCherry channel divided by the intensity detected in the GFP channel, I r/I g, for a cell expressing only FZD-GFP, was 0.051 or 5.1 %. […]

[1] = representative cell, G cc normalized to green auto-correlation amplitude, WNT-5A

B1: WNT-5A: recombinant carrier-free WNT-5A (R&D Systems), agonist for FZDs (protein, UniProt P41221 62-380, looked up)
Protein Wnt-5a: IIGAQPLCSQLAGLSQGQKKLCHLYQDHMQYIGEGAKTGIKECQYQFRHRRWNCSTVDNTSVFGRVMQIGSRETAFTYAVSAAGVVNAMSRACREGELSTCGCSRAARPKDLPRDWLWGGCGDNIDYGYRFAKEFVDARERERIHAKGSYESARILMNLHNNEAGRRTVYNLADVACKCHGVSGSCSLKTCWLQLADFRKVGDALKEKYDSAAAMRLNSRGKLVQVNSRFNSPTTQDLVYIDPSPDYCVRNESTGSLGTQGRLCNKTSEGMDGCELMCCGRGYDQFKTVQTERCHCKFHWCCYVKCKKCTEIVDQFVCK
In the case of B1, the “FZD6–FZD6 interaction upon stimulation (FCCS)” value (WNT-5A 300 ng ml^−1) is reported as “a transient decrease in FZD6–FZD6 interaction”, the “red molecules also green at maximal dimer dissociation” value [1] is reported as 6% and the “red molecules also green upon dimer re-association” value [1] is reported as 21%.
